How the values were obtained:
[1] = molecular target: feline FcRn complex (FcRn-α subunit and β-microglobulin), biotin labeled (feline); assay: SPR, pH 6
[2] = molecular target: feline FcRn complex (FcRn-α subunit and β-microglobulin), biotin labeled (feline); assay: SPR, pH 7.4

Binder	Kd [1] [nM]	Kd [2] [nM]
feline IgG1a S428Y/Q311W/D312P (antibody, part only; not given: Variable domains, not shown: another chain or arm of the molecule) constant: ASTTAPSVFPLAPSCGTTSGATVALACLVLGYFPEPVTVSWNSGALTSGVHTFPAVLQASGLYSLSSMVTVPSSRWLSDTFTCNVAHPPSNTKVDKTVRKTDHPPGPKPCDCPKCPPPEMLGGPSIFIFPPKPKDTLSISRTPEVTCLVVDLGPDDSDVQITWFVDNTQVYTAKTSPREEQFNSTYRVVSVLPILHWPWLKGKEFKCKVNSKSLPSPIERTISKAKGQPHEPQVYVLPPAQEELSRNKVSVTCLIKSFHPPDIAVEWEITGQPEPENNYRTTPPQLDSDGTYFVYSKLSVDRSHWQRGNTYTCSVYHEALHSHHTQKSLTQSPGK	26	4190
feline IgG1a S428Y/S434Y (antibody, part only; not given: Variable domains, not shown: another chain or arm of the molecule) constant: ASTTAPSVFPLAPSCGTTSGATVALACLVLGYFPEPVTVSWNSGALTSGVHTFPAVLQASGLYSLSSMVTVPSSRWLSDTFTCNVAHPPSNTKVDKTVRKTDHPPGPKPCDCPKCPPPEMLGGPSIFIFPPKPKDTLSISRTPEVTCLVVDLGPDDSDVQITWFVDNTQVYTAKTSPREEQFNSTYRVVSVLPILHQDWLKGKEFKCKVNSKSLPSPIERTISKAKGQPHEPQVYVLPPAQEELSRNKVSVTCLIKSFHPPDIAVEWEITGQPEPENNYRTTPPQLDSDGTYFVYSKLSVDRSHWQRGNTYTCSVYHEALHYHHTQKSLTQSPGK	4.65	235
feline IgG1a S252H/D312P (antibody, part only; not given: variable domains, not shown: another chain or arm of the molecule; small tags and cut ends) constant: ASTTAPSVFPLAPSCGTTSGATVALACLVLGYFPEPVTVSWNSGALTSGVHTFPAVLQASGLYSLSSMVTVPSSRWLSDTFTCNVAHPPSNTKVDKTVRKTDHPPGPKPCDCPKCPPPEMLGGPSIFIFPPKPKDTLHISRTPEVTCLVVDLGPDDSDVQITWFVDNTQVYTAKTSPREEQFNSTYRVVSVLPILHQPWLKGKEFKCKVNSKSLPSPIERTISKAKGQPHEPQVYVLPPAQEELSRNKVSVTCLIKSFHPPDIAVEWEITGQPEPENNYRTTPPQLDSDGTYFVYSKLSVDRSHWQRGNTYTCSVSHEALHSHHTQKSLTQSPGK	3.9	26.7
feline IgG1a S428Y/D312P (antibody, part only; not given: Variable domains, not shown: another chain or arm of the molecule; small tags and cut ends) constant: ASTTAPSVFPLAPSCGTTSGATVALACLVLGYFPEPVTVSWNSGALTSGVHTFPAVLQASGLYSLSSMVTVPSSRWLSDTFTCNVAHPPSNTKVDKTVRKTDHPPGPKPCDCPKCPPPEMLGGPSIFIFPPKPKDTLSISRTPEVTCLVVDLGPDDSDVQITWFVDNTQVYTAKTSPREEQFNSTYRVVSVLPILHQPWLKGKEFKCKVNSKSLPSPIERTISKAKGQPHEPQVYVLPPAQEELSRNKVSVTCLIKSFHPPDIAVEWEITGQPEPENNYRTTPPQLDSDGTYFVYSKLSVDRSHWQRGNTYTCSVYHEALHSHHTQKSLTQSPGK	34.1	2760
feline IgG1a S252Y/S434R (antibody, part only; not given: Variable domains, not shown: another chain or arm of the molecule; small tags and cut ends) constant: ASTTAPSVFPLAPSCGTTSGATVALACLVLGYFPEPVTVSWNSGALTSGVHTFPAVLQASGLYSLSSMVTVPSSRWLSDTFTCNVAHPPSNTKVDKTVRKTDHPPGPKPCDCPKCPPPEMLGGPSIFIFPPKPKDTLYISRTPEVTCLVVDLGPDDSDVQITWFVDNTQVYTAKTSPREEQFNSTYRVVSVLPILHQDWLKGKEFKCKVNSKSLPSPIERTISKAKGQPHEPQVYVLPPAQEELSRNKVSVTCLIKSFHPPDIAVEWEITGQPEPENNYRTTPPQLDSDGTYFVYSKLSVDRSHWQRGNTYTCSVSHEALHRHHTQKSLTQSPGK	4.12	10900
feline IgG1a S252H/Q311W (antibody, part only; not given: Variable domains, not shown: another chain or arm of the molecule; small tags and cut ends) constant: ASTTAPSVFPLAPSCGTTSGATVALACLVLGYFPEPVTVSWNSGALTSGVHTFPAVLQASGLYSLSSMVTVPSSRWLSDTFTCNVAHPPSNTKVDKTVRKTDHPPGPKPCDCPKCPPPEMLGGPSIFIFPPKPKDTLHISRTPEVTCLVVDLGPDDSDVQITWFVDNTQVYTAKTSPREEQFNSTYRVVSVLPILHWDWLKGKEFKCKVNSKSLPSPIERTISKAKGQPHEPQVYVLPPAQEELSRNKVSVTCLIKSFHPPDIAVEWEITGQPEPENNYRTTPPQLDSDGTYFVYSKLSVDRSHWQRGNTYTCSVSHEALHSHHTQKSLTQSPGK	6.04	25
feline IgG1a S252H/L314K (antibody, part only; not given: Variable domains, not shown: another chain or arm of the molecule; small tags and cut ends) constant: ASTTAPSVFPLAPSCGTTSGATVALACLVLGYFPEPVTVSWNSGALTSGVHTFPAVLQASGLYSLSSMVTVPSSRWLSDTFTCNVAHPPSNTKVDKTVRKTDHPPGPKPCDCPKCPPPEMLGGPSIFIFPPKPKDTLHISRTPEVTCLVVDLGPDDSDVQITWFVDNTQVYTAKTSPREEQFNSTYRVVSVLPILHQDWKKGKEFKCKVNSKSLPSPIERTISKAKGQPHEPQVYVLPPAQEELSRNKVSVTCLIKSFHPPDIAVEWEITGQPEPENNYRTTPPQLDSDGTYFVYSKLSVDRSHWQRGNTYTCSVSHEALHSHHTQKSLTQSPGK	6.37	20
feline IgG1a D312A (antibody, part only; not given: Variable domains, not shown: another chain or arm of the molecule; small tags and cut ends) constant: ASTTAPSVFPLAPSCGTTSGATVALACLVLGYFPEPVTVSWNSGALTSGVHTFPAVLQASGLYSLSSMVTVPSSRWLSDTFTCNVAHPPSNTKVDKTVRKTDHPPGPKPCDCPKCPPPEMLGGPSIFIFPPKPKDTLSISRTPEVTCLVVDLGPDDSDVQITWFVDNTQVYTAKTSPREEQFNSTYRVVSVLPILHQAWLKGKEFKCKVNSKSLPSPIERTISKAKGQPHEPQVYVLPPAQEELSRNKVSVTCLIKSFHPPDIAVEWEITGQPEPENNYRTTPPQLDSDGTYFVYSKLSVDRSHWQRGNTYTCSVSHEALHSHHTQKSLTQSPGK	6.95	8180
feline IgG1a S252F/S434R (antibody, part only; not given: Variable domains, not shown: another chain or arm of the molecule; small tags and cut ends) constant: ASTTAPSVFPLAPSCGTTSGATVALACLVLGYFPEPVTVSWNSGALTSGVHTFPAVLQASGLYSLSSMVTVPSSRWLSDTFTCNVAHPPSNTKVDKTVRKTDHPPGPKPCDCPKCPPPEMLGGPSIFIFPPKPKDTLFISRTPEVTCLVVDLGPDDSDVQITWFVDNTQVYTAKTSPREEQFNSTYRVVSVLPILHQDWLKGKEFKCKVNSKSLPSPIERTISKAKGQPHEPQVYVLPPAQEELSRNKVSVTCLIKSFHPPDIAVEWEITGQPEPENNYRTTPPQLDSDGTYFVYSKLSVDRSHWQRGNTYTCSVSHEALHRHHTQKSLTQSPGK	3.59	398
feline IgG1a S428Y/Q311W/L314K (antibody, part only; not given: Variable domains, not shown: another chain or arm of the molecule) constant: ASTTAPSVFPLAPSCGTTSGATVALACLVLGYFPEPVTVSWNSGALTSGVHTFPAVLQASGLYSLSSMVTVPSSRWLSDTFTCNVAHPPSNTKVDKTVRKTDHPPGPKPCDCPKCPPPEMLGGPSIFIFPPKPKDTLSISRTPEVTCLVVDLGPDDSDVQITWFVDNTQVYTAKTSPREEQFNSTYRVVSVLPILHWDWKKGKEFKCKVNSKSLPSPIERTISKAKGQPHEPQVYVLPPAQEELSRNKVSVTCLIKSFHPPDIAVEWEITGQPEPENNYRTTPPQLDSDGTYFVYSKLSVDRSHWQRGNTYTCSVYHEALHSHHTQKSLTQSPGK	10.1	348
feline IgG1a S252Y/L314K/S434Y (antibody, part only; not given: Variable domains, not shown: another chain or arm of the molecule; small tags and cut ends) constant: ASTTAPSVFPLAPSCGTTSGATVALACLVLGYFPEPVTVSWNSGALTSGVHTFPAVLQASGLYSLSSMVTVPSSRWLSDTFTCNVAHPPSNTKVDKTVRKTDHPPGPKPCDCPKCPPPEMLGGPSIFIFPPKPKDTLYISRTPEVTCLVVDLGPDDSDVQITWFVDNTQVYTAKTSPREEQFNSTYRVVSVLPILHQDWKKGKEFKCKVNSKSLPSPIERTISKAKGQPHEPQVYVLPPAQEELSRNKVSVTCLIKSFHPPDIAVEWEITGQPEPENNYRTTPPQLDSDGTYFVYSKLSVDRSHWQRGNTYTCSVSHEALHYHHTQKSLTQSPGK	0.0496	2.85
feline IgG1a S428Y/D312P/S434Y (antibody, part only; not given: Variable domains, not shown: another chain or arm of the molecule; small tags and cut ends) constant: ASTTAPSVFPLAPSCGTTSGATVALACLVLGYFPEPVTVSWNSGALTSGVHTFPAVLQASGLYSLSSMVTVPSSRWLSDTFTCNVAHPPSNTKVDKTVRKTDHPPGPKPCDCPKCPPPEMLGGPSIFIFPPKPKDTLSISRTPEVTCLVVDLGPDDSDVQITWFVDNTQVYTAKTSPREEQFNSTYRVVSVLPILHQPWLKGKEFKCKVNSKSLPSPIERTISKAKGQPHEPQVYVLPPAQEELSRNKVSVTCLIKSFHPPDIAVEWEITGQPEPENNYRTTPPQLDSDGTYFVYSKLSVDRSHWQRGNTYTCSVYHEALHYHHTQKSLTQSPGK	1.48	864
feline IgG1a D312P/L314K (antibody, part only; not given: Variable domains, not shown: another chain or arm of the molecule) constant: ASTTAPSVFPLAPSCGTTSGATVALACLVLGYFPEPVTVSWNSGALTSGVHTFPAVLQASGLYSLSSMVTVPSSRWLSDTFTCNVAHPPSNTKVDKTVRKTDHPPGPKPCDCPKCPPPEMLGGPSIFIFPPKPKDTLSISRTPEVTCLVVDLGPDDSDVQITWFVDNTQVYTAKTSPREEQFNSTYRVVSVLPILHQPWKKGKEFKCKVNSKSLPSPIERTISKAKGQPHEPQVYVLPPAQEELSRNKVSVTCLIKSFHPPDIAVEWEITGQPEPENNYRTTPPQLDSDGTYFVYSKLSVDRSHWQRGNTYTCSVSHEALHSHHTQKSLTQSPGK	7.24	311
feline IgG1a S252Y/D312P/S434Y (antibody, part only; not given: Variable domains, not shown: another chain or arm of the molecule; small tags and cut ends) constant: ASTTAPSVFPLAPSCGTTSGATVALACLVLGYFPEPVTVSWNSGALTSGVHTFPAVLQASGLYSLSSMVTVPSSRWLSDTFTCNVAHPPSNTKVDKTVRKTDHPPGPKPCDCPKCPPPEMLGGPSIFIFPPKPKDTLYISRTPEVTCLVVDLGPDDSDVQITWFVDNTQVYTAKTSPREEQFNSTYRVVSVLPILHQPWLKGKEFKCKVNSKSLPSPIERTISKAKGQPHEPQVYVLPPAQEELSRNKVSVTCLIKSFHPPDIAVEWEITGQPEPENNYRTTPPQLDSDGTYFVYSKLSVDRSHWQRGNTYTCSVSHEALHYHHTQKSLTQSPGK	0.0221	2.26
feline IgG1a S428Y/Q311W/S434Y (antibody, part only; not given: Variable domains, not shown: another chain or arm of the molecule; small tags and cut ends) constant: ASTTAPSVFPLAPSCGTTSGATVALACLVLGYFPEPVTVSWNSGALTSGVHTFPAVLQASGLYSLSSMVTVPSSRWLSDTFTCNVAHPPSNTKVDKTVRKTDHPPGPKPCDCPKCPPPEMLGGPSIFIFPPKPKDTLSISRTPEVTCLVVDLGPDDSDVQITWFVDNTQVYTAKTSPREEQFNSTYRVVSVLPILHWDWLKGKEFKCKVNSKSLPSPIERTISKAKGQPHEPQVYVLPPAQEELSRNKVSVTCLIKSFHPPDIAVEWEITGQPEPENNYRTTPPQLDSDGTYFVYSKLSVDRSHWQRGNTYTCSVYHEALHYHHTQKSLTQSPGK	3.8	1510

From US20240400708A1
